Test results published in patent US20150266962A1 (Pfizer, published 2015).
Each block holds one binder with its values, some of them ahead of it.

Assays:
[1] = biological target: T1, recombinant mouse IL-13-Rα2 (mIL-13-Rα2) (mouse, UniProt O88786 22-334, limits assumed); test: direct ELISA on coated recombinant mIL-13-Rα2, serially diluted purified ch08
T1 construct: also called murine mIL-13Rα2
T1 sequence (looked up): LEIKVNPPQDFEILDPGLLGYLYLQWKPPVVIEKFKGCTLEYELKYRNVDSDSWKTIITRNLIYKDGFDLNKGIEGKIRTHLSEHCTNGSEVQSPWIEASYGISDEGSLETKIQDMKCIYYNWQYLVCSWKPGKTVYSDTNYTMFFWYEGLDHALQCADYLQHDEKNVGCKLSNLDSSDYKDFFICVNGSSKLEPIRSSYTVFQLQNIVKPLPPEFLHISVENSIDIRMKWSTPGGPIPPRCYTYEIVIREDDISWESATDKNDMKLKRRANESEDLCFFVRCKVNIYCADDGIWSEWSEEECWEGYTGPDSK
Protocol: (§1) The binding of hu07 and hu08 to mouse IL-13-Rα2 was evaluated by direct ELISA. The identity between human and mouse IL-13-Rα2 at the amino acid level is approximately 64%. Recombinant mIL-13-Rα2 or hIL-13-Rα2 (as positive control) was coated onto a 96-well plate. Purified chimeric ch07 and ch08 were serially diluted and added to the antigen coated plate. The bound antibodies were detected by HRP conjugated goat anti-human IgGFc specific secondary antibody.

[2] = biological target: T2, recombinant human IL-13 receptor alpha 2 (hIL-13-Rα2) (human, UniProt Q14627 27-343); test: competition ELISA on coated recombinant hIL-13-Rα2, competitor biotin-ch08
T2 construct: Recombinant soluble antigen coated on ELISA plates or used in Biacore; also called rec hIL-13Rα2; rhIL-13Rα2
T2 sequence (looked up): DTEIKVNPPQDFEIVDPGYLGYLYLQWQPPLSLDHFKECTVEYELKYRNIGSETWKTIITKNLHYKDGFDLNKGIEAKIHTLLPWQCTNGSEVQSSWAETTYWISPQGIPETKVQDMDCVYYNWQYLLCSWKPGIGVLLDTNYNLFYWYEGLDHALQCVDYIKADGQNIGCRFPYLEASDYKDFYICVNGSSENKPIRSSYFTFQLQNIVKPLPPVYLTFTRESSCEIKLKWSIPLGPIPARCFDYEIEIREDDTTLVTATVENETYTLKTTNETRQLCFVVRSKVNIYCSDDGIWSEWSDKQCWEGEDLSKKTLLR
Protocol: A competition ELISA was performed to assess whether hu08 1.0 and hu08 v1.1 compete with ch08 for IL-13-Rα2 binding. Recombinant hIL-13-Rα2 was coated onto 96-well plates at 50 ul of […] in PBS overnight at 4° C. Plates were then blocked and washed following standard ELISA protocol. A 3-fold serially diluted ch08, hu08 1.0 and hu08 v1.1, and negative control ch07 (2× final concentration) were mixed with biotinylated ch08 (2×EC₅₀). 50 μl of the antibody and biotin-ch08 mixture were added to the plate and incubated for 1 hour at room temperature. The amount of biotin-ch08 bound was detected by HRP conjugated streptavidin.

[3] = biological target: T2, recombinant human IL-13 receptor alpha …; test: competition ELISA on plate-coated recombinant hIL-13-Rα2; competitor: constant amount of biotin-ch08, detected with streptavidin-HRP
Protocol: A competition ELISA was performed to examine whether ch07 and ch08 have distinct binding epitopes. Prior to the competition ELISA experiment, ch07 and ch08 were biotinylated. The EC50 of the biotinylated ch07 (biotin-ch07) and ch08 (biotin-ch08) were determined by direct standard ELISA. For the competition ELISA, recombinant hIL-13-Rα2 was coated onto 96-well plates at 50 ul of 2 μg/mL in PBS overnight at 4° C. The plates were then blocked and washed following a standard ELISA protocol. 3-fold serially diluted ch07 and ch08 (2× final concentration) were mixed with a constant amount of biotin-ch07 (FIG. 2A) or biotin-ch08 (FIG. 2B), respectively and were added to the plate and incubated for 1 hour at room temperature. The amount of biotinylated chimeric antibody bound was detected by HRP conjugated streptavidin at 1:5000 for 1 hour. […] Similar results are obtained when the same set of antibodies were used to compete with biotin-ch08 (FIG. 2B).

[4] = biological target: T2, recombinant human IL-13 receptor alpha …; test: standard ELISA on hIL-13-Rα2 (given as ED50)
[5] = biological target: T2, recombinant human IL-13 receptor alpha …; test: competition ELISA on plate (recombinant IL-13-Rα2), competitor biotinylated ch07
[6] = biological target: T2, recombinant human IL-13 receptor alpha …; test: competition ELISA on plate, competitor biotinylated ch07, purified protein
[7] = biological target: T2, recombinant human IL-13 receptor alpha …; test: SPR Biacore, pH 7.4
Protocol: To assess the binding kinetics of the ch07 and ch08 antibodies, SPR (Surface Plasmon Resonance) experiments were conducted on a Biacore® T100 or T200 instrument using a Biacore® human Fab Capture Kit (GE Healthcare). All data was analyzed using the Biacore® T100 evaluation software version 2.0 with a 1:1 Langmuir binding model.
Kₐ, Kd and KD are shown on Table 5. […] At pH6.0, ch07 and ch08 binding affinity to hIL-13-Rα2 are in the low nM range. Dissociation rates of ch08 and ch07 are very similar. Higher KDs at pH6.0 than pH7.4 are due to a slower association rate.

[8] = biological target: T2, recombinant human IL-13 receptor alpha …; test: direct ELISA on rhIL-13Rα2, purified protein (given as ED50)
[9] = biological target: T1, recombinant mouse IL-13-Rα2 (mIL-13-Rα2); test: direct ELISA on coated recombinant mIL-13-Rα2, serially diluted purified ch07
Protocol: as §1

binding result [1]: no binding
IC50 [2]: 1.98 nM
IC50 (read off the curve) [3]: ~6 nM
B1: chimeric antibody ch08 (antibody, human IgG1, V domains shown)
VH: EVQLVESGGDLVRPGGSLQLSCAASGFTFSRNGMSWVRQTPDRRLEWVATVSSGGSYIYYADSVKGRFTISRDNARNTLYLQMSSLKSEDTAMYYCARQGTTALATRFFDVWGAGTTVTVSS
VL: DIVMTQSHKFISTSVGDRVSITCKASQDVGTAVAWYQQIPGQSPKLLIYSASYRSTGIPDRFTGSGSGTDFSFIISSVQAEDLALYYCQHHYSAPWTFGGGTTLDIK
notes: also called ch08Hc + Lc; chimeric antibody 08

EC50 [4]: 0.1 nM
IC50 [5]: 2.21 nM
IC50 [6]: 2.21 nM
fold slower dissociation than ch08 [7]: ~2 fold
EC50 [8]: 0.39 nM
binding result [9]: no binding
B2: chimeric antibody ch07 (antibody, human IgG1, V domains shown)
VH: QVQLKESGPGLVAPSQSLSINCTVSGFSLTKYGVHWIRQSPGKGLEWLGVKWAGGSTDYNSALMSRLTISKDNNKSQVFLKMNSLQSDDSAMYYCARDHRDAMDYWGQGTSVTVSS
VL: QVVLTQSPAIMSASPGERVTMTCTASLSVSSTYLHWYHQKPGSSPKLWIYSTSNLASGVPARFSGSGSGTSYSLTISSMEAEDAATYYCHQYHRSPLTFGSGTKLELK
notes: also called chimeric antibody 07; biotin-ch07 (biotinylated form)
